Here are results for six molecules from paper PMC7017424, “Effects of Substrate-Binding Site Residues on the Biochemical Properties of a Tau Class Glutathione S-Transferase from Oryza sativa” (Genes, 2019).

Data set [1] has as its target T1, OsGSTU17 (Oryza sativa, UniProt Q93WY5).
T1 construct: about 25 kDa subunit; dimeric enzyme; mutants L112A and W165A expressed at 20 °C
T1 sequence (Q93WY5 1-223): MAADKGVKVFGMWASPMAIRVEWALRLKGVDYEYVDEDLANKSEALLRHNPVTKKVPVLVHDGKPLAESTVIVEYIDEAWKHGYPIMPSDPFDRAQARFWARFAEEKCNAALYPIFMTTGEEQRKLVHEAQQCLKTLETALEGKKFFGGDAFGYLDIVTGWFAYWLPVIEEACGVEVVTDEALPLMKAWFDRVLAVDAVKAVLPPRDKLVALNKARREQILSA
In words: absorbance at […] nm, initial rate […] s, non-linear regression (Hyper32). It counts as biochemical. To be noted: 1.0 mM GSH fixed, NBD-Cl 0.1-1.0 mM, 25 °C; apparent Km; wild-type value 'detected again', obtained from Yang et al. [31]; read-out: NBD-Cl / K m /; cited from earlier work.

Substrate in data set [2]: O=[N+]([O-])c1ccc(Cl)c2nonc12
In words: purified protein. It counts as biochemical, Oryza sativa. As to conditions: 1.0 mM GSH fixed, NBD-Cl 0.1-1.0 mM, 25 °C, apparent Km.

Residue numbers refer to the chain shown, from its start. In names and notes the source's numbering stands.

One may read the Vmax as the top rate of the reaction or transport when substrate is in excess. By kcat is commonly meant the number of substrate molecules converted per active site and unit of time at saturation. One may read the kcat/Km as the second-order rate constant that governs catalysis at low substrate concentration.

Consider `O=[N+]([O-])c1ccc(Cl)c2nonc12` [NBD-Cl, 7-chloro-4-nitrobenzo-2-oxa-1,3-diazole], for which the Km in data set [1] is 324 ± 16 µM.

B1: OsGSTU17 (Oryza sativa Japonica Group; W161A) (protein)
chain: T1 sequence (Q93WY5 1-223) with W161A
notes: about 25 kDa subunit; dimeric enzyme; mutants L112A and W165A expressed at 20 °C
For the molecule B1, in data set [2] (Km above tested range), the Km came to 1.117 ± 0.022 mM, the Vmax was 0.594 µM/min/mg, the kcat was determined as 0.999 s⁻¹ and the kcat/Km amounted to 894 M⁻¹ s⁻¹.

B2: OsGSTU17 (Oryza sativa Japonica Group; L112A) (protein)
chain: T1 sequence (Q93WY5 1-223) with L112A
notes: as for B1
With B2, in data set [2] (Km above tested range), the Km is recorded as 1.487 ± 0.079 mM, the Vmax was found to be 0.896 µM/min/mg, the kcat came out at 1.75 s⁻¹ and the kcat/Km was 1180 M⁻¹ s⁻¹.

B3: OsGSTU17 (Oryza sativa Japonica Group; M17A) (protein)
chain: T1 sequence (Q93WY5 1-223) with M17A
notes: as for B1
On to B3, for which, in data set [2] (Km above tested range), the Km came to 3.661 ± 0.843 mM, the Vmax is 0.83 µM/min/mg, the kcat stood at 0.809 s⁻¹ and the kcat/Km was determined as 221 M⁻¹ s⁻¹.

B4: OsGSTU17 (Oryza sativa Japonica Group; F162A) (protein)
chain: T1 sequence (Q93WY5 1-223) with F162A
notes: as for B1
Turning to B4, in data set [2] (Km above tested range), the Km is listed as 3.866 ± 0.871 mM, the Vmax is 0.869 µM/min/mg, the kcat was 1.57 s⁻¹ and the kcat/Km turned out to be 407 M⁻¹ s⁻¹.

B5: OsGSTU17 (Oryza sativa Japonica Group; N109A) (protein)
chain: T1 sequence (Q93WY5 1-223) with N109A
notes: as for B1
On to B5, for which, in data set [2], the Km is 0.781 ± 0.034 mM, the Vmax is 0.364 µM/min/mg, the kcat came to 0.266 s⁻¹ and the kcat/Km was determined as 341 M⁻¹ s⁻¹.
